The values that follow come from patent US20130101602A1 (ARGOS THERAPEUTICS, published 2013).

What is called Kd is a measure of binding affinity in units of concentration. Broadly, the koff is the first-order rate constant of dissociation. In general, kon refers to the rate constant with which the complex forms.

Experiment [1] has as its target various IFN-α subtypes (those inhibited in the reporter gene assay of FIG. 5). Briefly: cell-based or functional assay.
Experiment [2] deals with T1, recombinant human IFN-α4a (human, UniProt P05014 24-189). Briefly: cell-based or functional assay.
Experiment [3] deals with T2, recombinant human IFN-αC (human, UniProt P01566 24-189). Briefly: cell-based or functional assay.
The target of experiment [4] is T3, recombinant human IFN-αG (human, UniProt P01569 24-189). Briefly: cell-based or functional assay.
Experiment [5] addresses T2, recombinant human IFN-αC. Briefly: cell-based or functional assay. The source holds these as a separate data set.
Experiment [6] addresses T4, recombinant human IFN-αF (human, UniProt P01568 24-189). Briefly: cell-based or functional assay.
In experiment [7] the target is T4, recombinant human IFN-αF. Briefly: cell-based or functional assay. The source holds these as a separate data set.
The next experiment concerns the target T5, recombinant human IFN-α1 (human, UniProt P0DY56 24-189).
T5 construct: both come from gene 1; also called hIFN-α1; subtype 1 (Ala114)
Briefly: SPR (Biacore), mAb immobilised, IFN-α injected.

Experiment [8] has as its target T3, recombinant human IFN-αG. Briefly: SPR (Biacore), mAb amine-coupled on CM5 chip, IFN-α injected, 1:1 Langmuir fit. A general note: SPR reads the build-up and loss of mass on a sensor chip optically.
Experimental: (§1) The purified monoclonal antibodies were immobilized in individual flow cells on a CM5 type sensor chip. Immobilizations were performed using a standard amine coupling procedure, aiming for an immobilization level of 1000 Resonance Units (RU).
(§2) HBS-EP pH 7.4 (10 mM HEPES, 150 mM NaCl, 3 mM EDTA and 0.005% Polysorbate P20) was used as running buffer, and diluent for the recombinant IFN-α's. Association (injection) was 4 min., followed by a 12 to 30 min. dissociation period. Flow rate was 50 μl/min. Experiments were performed at 25° C. Detection in all flow cells simultaneously. Flow cell #1 contained no immobilized antibody, and was used for subtraction of background and bulk.
(§3) Data was inspected for mass-transport limitations prior to calculation of the kinetic parameters.
For experiment [9], the target named is T6, recombinant human IFN-αH2 (human, UniProt P01570 24-189).
T6 construct: also called hIFN-αH2
The experiment is described as above.
Experimental: as §1, §2, §3

In the next experiment the target is T7, recombinant human IFN-αI (human, UniProt P01571 24-189).
T7 construct: also called hIFN-αI
The experiment is described as above.

The target in experiment [10] is T8, recombinant human IFN-αJ1 (human, UniProt P01567 24-189).
T8 construct: also called hIFN-αJ1
The description is as above.
Experimental: as §1, §2, §3

For experiment [11], the target named is T9, recombinant human IFN-αWA (human, UniProt P05015 24-189).
T9 construct: also called hIFN-αWA
The experiment is described as above.
Experimental: as §1, §2, §3

The target of experiment [12] is T1, recombinant human IFN-α4a. Described as above.
Experimental: as §1, §2, §3
Experiment [13] has as its target T2, recombinant human IFN-αC. The description is as above.
Experimental: as §1, §2, §3
The next experiment concerns the target T10, recombinant human IFN-αK (human, UniProt P05013 24-189).
T10 construct: also called hIFN-αK
The experiment is described as above.

The target in experiment [14] is recombinant human IFN-αA (human) (UniProt P01563). Briefly: cell-based or functional assay.
For experiment [15], the target named is T3, recombinant human IFN-αG. Briefly: cell-based or functional assay. The source holds these as a separate data set.
In experiment [16] the target is T8, recombinant human IFN-αJ1. Briefly: cell-based or functional assay.
Experiment [17] addresses T4, recombinant human IFN-αF. Briefly: cell-based or functional assay. This is another data set of the same source.
In experiment [18] the target is recombinant human IFN-αA (human) (UniProt P01563). Briefly: SPR (Biacore), KD normalised to hzACO-1.
Experiment [19] has the same target. Briefly: SPR (Biacore), mAb amine-coupled on CM5 chip, IFN-α injected, 1:1 Langmuir fit.

T3 sequence (P01569 24-189): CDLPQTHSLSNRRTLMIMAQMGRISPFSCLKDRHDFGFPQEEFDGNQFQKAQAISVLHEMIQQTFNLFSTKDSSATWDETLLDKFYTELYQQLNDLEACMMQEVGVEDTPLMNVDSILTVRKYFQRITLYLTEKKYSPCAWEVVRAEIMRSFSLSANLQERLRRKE
T2 sequence (P01566 24-189): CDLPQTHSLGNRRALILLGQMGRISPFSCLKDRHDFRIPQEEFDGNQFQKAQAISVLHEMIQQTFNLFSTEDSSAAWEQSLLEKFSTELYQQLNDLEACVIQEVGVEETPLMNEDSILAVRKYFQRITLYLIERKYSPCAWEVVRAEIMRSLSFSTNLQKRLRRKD
T4 sequence (P01568 24-189): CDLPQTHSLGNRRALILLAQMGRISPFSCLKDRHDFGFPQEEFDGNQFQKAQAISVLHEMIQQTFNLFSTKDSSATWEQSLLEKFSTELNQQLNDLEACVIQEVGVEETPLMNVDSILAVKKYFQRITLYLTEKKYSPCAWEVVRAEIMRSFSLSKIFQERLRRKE
T8 sequence (P01567 24-189 limits assumed): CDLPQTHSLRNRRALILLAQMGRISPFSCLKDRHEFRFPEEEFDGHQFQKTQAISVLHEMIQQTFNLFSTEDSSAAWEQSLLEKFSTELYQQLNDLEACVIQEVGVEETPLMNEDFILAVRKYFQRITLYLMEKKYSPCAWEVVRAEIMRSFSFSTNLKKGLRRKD
Sequence of recombinant human IFN-αA (human) (P01563 other isoform, or with tags, fused parts or gaps): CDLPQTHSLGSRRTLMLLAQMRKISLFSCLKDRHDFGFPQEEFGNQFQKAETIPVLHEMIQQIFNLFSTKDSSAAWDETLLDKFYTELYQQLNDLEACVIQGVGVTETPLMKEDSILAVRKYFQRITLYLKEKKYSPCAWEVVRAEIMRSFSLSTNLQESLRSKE
T1 sequence (P05014 24-189): as the sequence (P01566 24-189) above, with G19A, P26H, R37G, I38F, Q40E, N46H, I132T, R134K counted along it
T10 sequence (P05013 24-189): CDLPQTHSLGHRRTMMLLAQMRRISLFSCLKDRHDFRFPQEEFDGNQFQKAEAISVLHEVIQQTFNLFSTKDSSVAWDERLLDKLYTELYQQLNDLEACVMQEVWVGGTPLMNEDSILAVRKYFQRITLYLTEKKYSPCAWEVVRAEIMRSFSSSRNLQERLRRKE
T6 sequence (P01570 24-189): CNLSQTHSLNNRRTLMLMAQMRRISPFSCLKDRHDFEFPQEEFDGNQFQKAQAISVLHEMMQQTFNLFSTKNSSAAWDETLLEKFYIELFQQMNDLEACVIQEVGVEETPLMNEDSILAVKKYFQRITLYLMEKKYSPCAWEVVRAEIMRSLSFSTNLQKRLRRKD
T5 sequence (P0DY56 entry or part of it limits assumed): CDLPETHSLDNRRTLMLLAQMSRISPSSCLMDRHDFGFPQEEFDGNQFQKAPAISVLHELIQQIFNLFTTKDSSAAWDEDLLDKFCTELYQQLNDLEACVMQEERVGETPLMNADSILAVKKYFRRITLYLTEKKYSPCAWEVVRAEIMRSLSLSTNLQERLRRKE
T7 sequence (P01571 24-189): as the sequence (P01566 24-189) above, with G19A, R37G, I38L, A51T, D95N, V106M, I132T, R134K, R161I counted along it
T9 sequence (P05015 24-189): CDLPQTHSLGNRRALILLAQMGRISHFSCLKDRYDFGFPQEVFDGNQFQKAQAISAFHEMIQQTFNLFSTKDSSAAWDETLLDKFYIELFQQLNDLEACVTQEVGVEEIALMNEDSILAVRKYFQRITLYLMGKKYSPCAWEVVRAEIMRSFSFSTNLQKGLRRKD
Experimental for recombinant human IFN-α1: as §1, §2, §3
Experimental for recombinant human IFN-αI: as §1, §2, §3
Experimental for recombinant human IFN-αK: as §1, §2, §3

B1: hzACO-1 (humanized ACO-1) (antibody, human IgG4, V domains shown)
VH: QVQLVQSGAEVKKPGASVKVSCKASGYTFTNYWMHWVRQAPGQGLEWMGEINPSHGRTIYAQKFQGRVTMTRDTSTSTVYMELSSLRSEDTAVYYCARGGLGPAWFAYWGQGTLVTVSS
VL: EIVLTQSPATLSLSPGERATLSCSAGSSVDSSYLYWYQQKPGQAPRLLIYSTSNLASGIPARFSGSGSGTDFTLTISSLEPEDFAVYYCHQWSSYPFTFGQGTKLEIKR
notes: also called hzACO-1 IgG4; hzACO-1-IgG4
In experiment [1], B1 returned an IC50, reporter gene (Mx promoter-luciferase) assay in 93D7 cells of 28 to 314 ng/mL. Also, the “IC50 (read off the curve) (CPE assay)” value in experiment [2] is roughly 60 ng/mL; in the experiment with recombinant human IFN-αC [3], roughly 8 ng/mL. Besides, the “IC50 (read off the curve) (reporter gene assay)” value with recombinant human IFN-αG [4] is roughly 0.05 µg/mL; with recombinant human IFN-αC [5], roughly 0.03 µg/mL; in the experiment with recombinant human IFN-αF [6] it was roughly 0.3 µg/mL. The “IC50 (reporter gene assay, Mx promoter-luciferase in 93D7 cells)” value with recombinant human IFN-αF [7] worked out at 0.277 µg/mL. For the same molecule, the binding result with recombinant human IFN-α1 is “no binding”. The Kd with recombinant human IFN-αG [8] came out at 0.92 nM; in [9], 3.21 nM; in the experiment with recombinant human IFN-αI, 2.81 nM; in [10] it was 4.81 nM; in [11] it was 4.1 nM; in experiment [12], 3.45 nM. For the same molecule, the Kd stood at 1.05 nM with recombinant human IFN-αC [13] and 1.44 nM with recombinant human IFN-αK.

B2: hzACO-1-kabat CDRH2 (antibody, V domains shown)
VH: QVQLVQSGAEVKKPGASVKVSCKASGYTFTNYWMHWVRQAPGQGLEWMGEINPSHGRTIYNENFKSRVTMTRDTSTSTVYMELSSLRSEDTAVYYCARGGLGPAWFAYWGQGTLVTVSS
VL: EIVLTQSPATLSLSPGERATLSCSAGSSVDSSYLYWYQQKPGQAPRLLIYSTSNLASGIPARFSGSGSGTDFTLTISSLEPEDFAVYYCHQWSSYPFTFGQGTKLEIK
On to B2, for which the IC50 value relative to hzACO-1 (RG assay) in experiment [14] is 0.95; in the experiment with recombinant human IFN-αG [15] it was 0.78; in [16], 1.15; with recombinant human IFN-αF [17] it was 0.95. The KD mAb/KD hzACO-1 in experiment [18] was 0.9. The koff in experiment [19] is 0.000341 s⁻¹. Moreover, in experiment [19], the kon is 205000 M⁻¹ s⁻¹.

B3: hzACO-1-A93V (antibody, human IgG4, name in Kabat numbering, V domains shown)
VH: QVQLVQSGAEVKKPGASVKVSCKASGYTFTNYWMHWVRQAPGQGLEWMGEINPSHGRTIYAQKFQGRVTMTRDTSTSTVYMELSSLRSEDTAVYYCVRGGLGPAWFAYWGQGTLVTVSS
VL: EIVLTQSPATLSLSPGERATLSCSAGSSVDSSYLYWYQQKPGQAPRLLIYSTSNLASGIPARFSGSGSGTDFTLTISSLEPEDFAVYYCHQWSSYPFTFGQGTKLEIKR
Take B3: the “IC50 (reporter gene assay, Mx promoter-luciferase in 93D7 cells)” value with recombinant human IFN-αF [7] turned out to be 0.156 µg/mL.

B4: ACO-1 (murine anti-IFN-α antibody, recombinant) (antibody, V domains shown)
VH: QVQLQQPGAELVKPGASVKLSCKASGYTFTNYWMHWVKQRPGQGLEWIGEINPSHGRTIYNENFKSKATLTVDKSSITAFMQLSSLTSEDSAVYFCARGGLGPAWFAYWGQGTLVTVSA
VL: QIVLTQSPAIMSASPGEKVTLTCSAGSSVDSSYLYWYQQKPGSSPKLWIYSTSNLASGVPARFSGSGSGTSYSLTISSMEAEDAASYFCHQWSSYPFTFGSGTKLEIKR
As for B4, the “IC50 value relative to hzACO-1 (RG assay)” value with recombinant human IFN-αG [15] came out at 0.56; in experiment [16] it was 0.58; with recombinant human IFN-αF [17], 0.82.
